Measurements: patent US20180118803A1 (Memorial Sloan Kettering, published 2018)
Blank lines part the entries; values can stand above or below the binder they belong to.

Key:
[1] = biological target: T1, GPRC5D peptide stretch 15LCDAEGPWG23 (N-term) (human); experiment: Pepscan ELISA on peptide arrays, high stringency, 3 ug/ml
T1 construct: This is a stretch deduced from array peptides that contain it
T1 peptide: LCDAEGPWG
Procedure: (§1) ELISA Screening—The binding of antibody to each of the synthesized peptides was tested in a PEPSCAN-based ELISA. The peptide arrays were incubated with primary antibody solution (overnight at 4° C.). After washing, the peptide arrays were incubated with a 1/1000 dilution of an appropriate antibody peroxidase conjugate (SBA) for one hour at 25° C. After washing, the peroxidase substrate 2,2′-azino-di-3-ethylbenzthiazoline sulfonate (ABTS) and 2 μl/ml of 3 percent H₂O₂ were added. After one hour, the color development was measured. The color development was quantified with a charge coupled device (CCD)—camera and an image processing system.

[2] = biological target: T2, GPRC5D peptides containing sequence 230QFQRQPQWDDPVVC243 (ECL3) (human); experiment: Pepscan ELISA, set 1 (linear) compared with set 4 (loop), high stringency, 3 ug/ml
T2 construct: This is a stretch deduced from array peptides that contain it
T2 peptide: QFQRQPQWDDPVVC

[3] = biological target: T3, GPRC5D peptide stretch 16CDAEGPWGII25 (N-term) (human); experiment: Pepscan ELISA on peptide arrays, moderate stringency, 1 ug/ml
T3 construct: This is a stretch deduced from array peptides that contain it
T3 peptide: CDAEGPWGII
Procedure: as §1

[4] = biological target: T4, GPRC5D peptide stretch 229PQFQRQPQW237 (ECL3) (human); experiment: as above
T4 construct: This is a stretch deduced from array peptides that contain it
T4 peptide: PQFQRQPQW
Procedure: as §1

[5] = biological target: T5, GPRC5D peptide stretch 5CIESTGDYFLLCD17 (N-term) (human); experiment: Pepscan ELISA on peptide arrays, high stringency, 1 ug/ml
T5 construct: This is a stretch deduced from array peptides that contain it
T5 peptide: CIESTGDYFLLCD
Procedure: as §1

- binding result [1]: binds
- binding result [2]: binds
B1: ET150-8 mIgG1 (antibody, V domains shown)
VH: QVQLVESGGGLVHPGGSLRLSCAASGFTFRSHSMNWVRQAPGKGLEWVSSISSDSTYTYYADSVKGRFTISRDNAKNSLYLQMNSLRAEDTAVYYCARSGGQWKYYDYWGQGTLVTVSS
VL: SSELTQDPAVSVALGQTVRITCQGDSLRSYYASWYQQKPGQAPVLVIYGKNNRPSGIPDRFSGSSSGNTASLTITGAQAEDEADYYCNSRDSSGNPPVVFGGGTKLTVLG
notes: also called ET150-158

- binding result [3]: binds
- binding result [4]: binds
B2: ET150-2 mIgG1 (antibody, V domains shown)
VH: QMQLVQSGAEVKKPGASVKVSCKASGYTFNRYAITWVRQAPGQGLEWMGWISAYNGNSHYAQKLQGRVTMTTDTSTGTAYMELRRLRSDDTAVYYCARMAYDSWGQGTLVTVSS
VL: QSVLTQPASVSGSPGQSLTISCTGTSNDVGAYKYVSWYQQYPGKAPKLILYDVFKRPSGVSNRFSGSKSDNTASLTISGLQAEDEADYYCFSLTSSNTYVFGTGTKVTVLG
notes: also called ET150-152

- binding result [5]: binds
B3: ET150-5 mIgG1 (antibody, V domains shown)
VH: EVQLVESGGGLVKPGGSLRLSCAASGFTFSDYYMSWIRQAPGKGLEWVSYISSSGSTIYYADSVKGRFTISRDNAKNSLYLQMNSLRAEDTAVYYCARGYGKAYDQWGQGTLVTVSS
VL: QSVLTQPPSASGTPGQRVTISCSGSRSNVGGNYVFWYQQVPGATPKLLIYRSNQRPSGVPDRFAGSKSGSSASLAISGLRSEDEADYYCATWDDSLSGFVFGTGTKVTVLG
notes: also called ET150-155
